Data reported in PMC3375269 (2012).

B1: Muscarinic toxin 1 (MT1) (protein)
chain: LTCVTSKSIFGITTENCPDGQNLCFKKWYYIVPRYSDITWGCAATCPKPTNVRETIRCCETDKCNE
B2: Muscarinic toxin 7 (MT7) (protein)
chain: LTCVKSNSIWFPTSEDCPDGQNLCFKRWQYISPRMYDFTRGCAATCPKAEYRDVINCCGTDKCNK

Experiments:
[1] = molecular target: T1, Muscarinic acetylcholine receptor M4 (Homo sapiens, UniProt P08173); assay: [3H]-NMS equilibrium inhibition binding
T1 chain: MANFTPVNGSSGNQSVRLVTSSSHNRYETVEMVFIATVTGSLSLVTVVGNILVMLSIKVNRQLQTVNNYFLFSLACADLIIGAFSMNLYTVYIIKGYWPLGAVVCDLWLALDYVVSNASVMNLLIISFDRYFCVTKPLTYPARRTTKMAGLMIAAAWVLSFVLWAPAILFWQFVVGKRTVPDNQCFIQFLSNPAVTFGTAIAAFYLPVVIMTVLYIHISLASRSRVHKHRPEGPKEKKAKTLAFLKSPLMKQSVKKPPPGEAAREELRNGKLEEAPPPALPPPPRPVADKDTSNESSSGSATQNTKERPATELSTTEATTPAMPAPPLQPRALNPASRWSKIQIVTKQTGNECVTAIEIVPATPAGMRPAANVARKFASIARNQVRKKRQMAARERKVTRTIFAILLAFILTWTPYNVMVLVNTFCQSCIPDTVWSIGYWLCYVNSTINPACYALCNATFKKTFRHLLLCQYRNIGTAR

[2] = molecular target: T2, Muscarinic acetylcholine receptor M1 (Homo sapiens, UniProt P11229); assay: [3H]-NMS equilibrium inhibition binding
T2 chain: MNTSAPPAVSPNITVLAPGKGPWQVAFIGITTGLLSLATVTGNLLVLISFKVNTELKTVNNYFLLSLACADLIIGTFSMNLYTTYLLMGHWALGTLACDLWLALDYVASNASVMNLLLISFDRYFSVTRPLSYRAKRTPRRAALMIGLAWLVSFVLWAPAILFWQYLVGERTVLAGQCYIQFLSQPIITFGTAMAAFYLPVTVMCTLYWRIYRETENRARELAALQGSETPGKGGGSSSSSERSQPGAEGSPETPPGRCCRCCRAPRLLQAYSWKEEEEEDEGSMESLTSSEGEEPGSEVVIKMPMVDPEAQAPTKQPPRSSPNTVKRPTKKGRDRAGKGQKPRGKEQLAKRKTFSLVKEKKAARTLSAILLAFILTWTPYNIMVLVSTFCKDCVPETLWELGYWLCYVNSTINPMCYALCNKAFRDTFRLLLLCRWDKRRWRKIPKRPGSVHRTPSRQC

[3] = molecular target: T3, alpha1A-adrenoceptor (Homo sapiens, UniProt P35348); assay: [3H]-Prazosin equilibrium inhibition binding
T3 chain: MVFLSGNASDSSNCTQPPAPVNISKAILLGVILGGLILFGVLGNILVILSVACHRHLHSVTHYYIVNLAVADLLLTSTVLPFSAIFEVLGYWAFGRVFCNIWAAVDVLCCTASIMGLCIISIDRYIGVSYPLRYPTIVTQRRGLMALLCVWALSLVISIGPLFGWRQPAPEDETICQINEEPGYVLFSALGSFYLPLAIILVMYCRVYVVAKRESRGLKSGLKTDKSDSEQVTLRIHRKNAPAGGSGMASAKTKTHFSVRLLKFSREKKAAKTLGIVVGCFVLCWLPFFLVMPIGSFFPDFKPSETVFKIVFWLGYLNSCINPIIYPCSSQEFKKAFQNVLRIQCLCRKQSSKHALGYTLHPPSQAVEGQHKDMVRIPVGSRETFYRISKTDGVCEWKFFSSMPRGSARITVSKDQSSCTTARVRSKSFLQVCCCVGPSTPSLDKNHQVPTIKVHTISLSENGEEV

Binder	Ki [1]	Ki [2]	Ki [3]
B1	310 nM	24 nM	62 nM
B2	13000 nM	0.034 nM	> 20000 nM
